Columns and labels:
[1] = Intramolecular carbene C—H insertion, substrate 4.1a; type: biochemical; conditions: for Yield %: 10 mM 4.1a, 10 uM P450, 10 mM Na2S2O4, product 4.2a
Description: Yield of product 4.22b was established after calibration with phenethyl alcohol as an internal standard. The reaction is not catalyzed by the WT-BM3 heme domain or hemin at 5% catalyst loading.
A representative procedure for P450-catalyzed C—H insertion is as follows: A vial containing WT-AxD (20 μL, 200 μM) was sealed with a teflon cap and the headspace of this vial was purged with argon for 5 min. Concurrently, a solution of sodium dithionite (11 mM in phosphate buffer pH=8) was degassed for a minimum of 5 min and 360 μL of this solution was transferred to the vial containing protein. The gas lines were disconnected from the vials. The substrate 4.1a or 4.1b was then added as a solution (20 μL, 200 mM). Final concentrations of all components were: 10 uM enzyme, 10 mM substrate, and 10 mM dithionite. […]
The mixture was extracted with 1 mL cyclohexane and analyzed by GC-MS or GC. GC-MS was performed on a Shimadzu TQ8030 GC-MS with ion count detector and J&W HP-5 column (30 m×0.32 mm, 0.25 μm film) using the following method: 90° C. (hold 2 min), 90-190° C. (20° C./min), and 190-230 (40° C./min)

[2] = N—H insertion, aniline with ethyl 2-diazopropanoate; type: biochemical; conditions: 10 μM catalyst, 20 mM aniline, 10 mM Na2S2O4, 10 mM ethyl 2-diazopropanoate
Description: The reactions shown in FIG. 37A were carried out with protein (20 μM), ethyl diazo acetate (8.5 mM), aniline (20 mM) and Na2S2O4 (10 mM) in phosphate buffer (pH 8) and allowed to shake at room temperature for 12 h. Yields are reported in parenthesis and TTN are presented in italics. Yields were determined by GC calibrated for each product. An isolated yield of 65% for compound 4.3 was determined for the milligram scale reaction run as follows: 25 mM EDA, 25 mM aniline, 25 μM protein, and 25 mM Na2S2O4. The reaction producing compounds 4.5 and 4.10 were carried out with protein (20 μM), ethyl diazo acetate (10.0 mM), aniline (20 mM) and Na2S2O4 (10 mM).
While substituted diazo compounds can also be used for insertion, the yield from N—H insertion of ethyl 2-diazopropanoate into aniline is only 26% (product 4.5). To improve efficiency of this reaction, we examined the reaction of ethyl 2-diazopropanoate with a variety of axial mutants. In particular, the axial mutant WT-AxA provided the desired product in 83% yield, compared to 8% yield and 1.7% yield with axial mutant WT-AxS and WT-BM3 heme domain, respectively (FIG. 37B).
(§1) The reactions shown in FIG. 37B were carried out with 10 μM catalyst loading, 20 mM aniline, 10 mM Na2S2O4 and 10 mM ethyl 2-diazopropanoate as described above. For the final entry in FIG. 37B, whole cells expressing BM3-CIS-T438S at 2.5 μM were used. See, U.S. Provisional Application No. 61/711,640 for the procedure for catalysis with whole cells.

[3] = N—H insertion, aniline with ethyl 2-diazopropanoate, whole cells; type: cell-based; conditions: whole cells expressing enzyme at 2.5 μM
Description: as §1

Row | Molecule | Yield % [1] | yield of product 4.5 [2] | other results
1 | WT-BM3 heme: WT heme domain (amino acids 1-463 of SEQ ID NO: 1) (protein, listed as Bacillus megaterium, cytochrome P450NADPH-P-450 reductase precursor, cytochrome P450 (BM3), CYP102A1) TIKEMPQPKTFGELKNLPLLNTDKPVQALMKIADELGEIFKFEAPGRVTRYLSSQRLIKEACDESRFDKNLSQALKFVRDFAGDGLFTSWTHEKNWKKAHNILLPSFSQQAMKGYHAMMVDIAVQLVQKWERLNADEHIEVPEDMTRLTLDTIGLCGFNYRFNSFYRDQPHPFITSMVRALDEAMNKLQRANPDDPAYDENKRQFQEDIKVMNDLVDKIIADRKASGEQSDDLLTHMLNGKDPETGEPLDDENIRYQIITFLIAGHETTSGLLSFALYFLVKNPHVLQKAAEEAARVLVDPVPSYKQVKQLKYVGMVLNEALRLWPTAPAFSLYAKEDTVLGGEYPLEKGDELMVLIPQLHRDKTIWGDDVEEFRPERFENPSAIPQHAFKPFGNGQRACIGQQFALHEATLVLGMMLKHFDFEDHTNYELDIKETLTLKPEGFVVKAKSKKIPLGGIPSPST | 0% | 1.7% | lactone formation via C—H bond insertion ([1]; substrates 4.1a and 4.1b, 10 μM variant or hemin at 5% catalyst loading, 16 h): not catalyzed
2 | WT-AxN: WT heme domain + C400N (protein, synthetic cytochrome P450-BM3 variant WT-AxN (heme), WT heme domain + C400N) TIKEMPQPKTFGELKNLPLLNTDKPVQALMKIADELGEIFKFEAPGRVTRYLSSQRLIKEACDESRFDKNLSQALKFVRDFAGDGLFTSWTHEKNWKKAHNILLPSFSQQAMKGYHAMMVDIAVQLVQKWERLNADEHIEVPEDMTRLTLDTIGLCGFNYRFNSFYRDQPHPFITSMVRALDEAMNKLQRANPDDPAYDENKRQFQEDIKVMNDLVDKIIADRKASGEQSDDLLTHMLNGKDPETGEPLDDENIRYQIITFLIAGHETTSGLLSFALYFLVKNPHVLQKAAEEAARVLVDPVPSYKQVKQLKYVGMVLNEALRLWPTAPAFSLYAKEDTVLGGEYPLEKGDELMVLIPQLHRDKTIWGDDVEEFRPERFENPSAIPQHAFKPFGNGQRANIGQQFALHEATLVLGMMLKHFDFEDHTNYELDIKETLSLKPKGFVVKAKSKKIPLGGIPSPST | 0% | – | –
3 | WT-AxY: WT heme domain + C400Y (protein, listed as Bacillus megaterium, cytochrome P450NADPH-P-450 reductase precursor, cytochrome P450 (BM3), CYP102A1, WT heme domain + C400Y) TIKEMPQPKTFGELKNLPLLNTDKPVQALMKIADELGEIFKFEAPGRVTRYLSSQRLIKEACDESRFDKNLSQALKFVRDFAGDGLFTSWTHEKNWKKAHNILLPSFSQQAMKGYHAMMVDIAVQLVQKWERLNADEHIEVPEDMTRLTLDTIGLCGFNYRFNSFYRDQPHPFITSMVRALDEAMNKLQRANPDDPAYDENKRQFQEDIKVMNDLVDKIIADRKASGEQSDDLLTHMLNGKDPETGEPLDDENIRYQIITFLIAGHETTSGLLSFALYFLVKNPHVLQKAAEEAARVLVDPVPSYKQVKQLKYVGMVLNEALRLWPTAPAFSLYAKEDTVLGGEYPLEKGDELMVLIPQLHRDKTIWGDDVEEFRPERFENPSAIPQHAFKPFGNGQRAYIGQQFALHEATLVLGMMLKHFDFEDHTNYELDIKETLTLKPEGFVVKAKSKKIPLGGIPSPST | trace | – | –
4 | WT-AxS: WT heme domain + C400S (protein, listed as Bacillus megaterium, cytochrome P450NADPH-P-450 reductase precursor, cytochrome P450 (BM3), CYP102A1, WT heme domain + C400S) TIKEMPQPKTFGELKNLPLLNTDKPVQALMKIADELGEIFKFEAPGRVTRYLSSQRLIKEACDESRFDKNLSQALKFVRDFAGDGLFTSWTHEKNWKKAHNILLPSFSQQAMKGYHAMMVDIAVQLVQKWERLNADEHIEVPEDMTRLTLDTIGLCGFNYRFNSFYRDQPHPFITSMVRALDEAMNKLQRANPDDPAYDENKRQFQEDIKVMNDLVDKIIADRKASGEQSDDLLTHMLNGKDPETGEPLDDENIRYQIITFLIAGHETTSGLLSFALYFLVKNPHVLQKAAEEAARVLVDPVPSYKQVKQLKYVGMVLNEALRLWPTAPAFSLYAKEDTVLGGEYPLEKGDELMVLIPQLHRDKTIWGDDVEEFRPERFENPSAIPQHAFKPFGNGQRASIGQQFALHEATLVLGMMLKHFDFEDHTNYELDIKETLTLKPEGFVVKAKSKKIPLGGIPSPST | – | 8% | –
5 | WT-AxM: WT heme domain + C400M (protein, synthetic cytochrome P450-BM3 variant WT-AxM (heme), WT heme domain + C400M) TIKEMPQPKTFGELKNLPLLNTDKPVQALMKIADELGEIFKFEAPGRVTRYLSSQRLIKEACDESRFDKNLSQALKFVRDFAGDGLFTSWTHEKNWKKAHNILLPSFSQQAMKGYHAMMVDIAVQLVQKWERLNADEHIEVPEDMTRLTLDTIGLCGFNYRFNSFYRDQPHPFITSMVRALDEAMNKLQRANPDDPAYDENKRQFQEDIKVMNDLVDKIIADRKASGEQSDDLLTHMLNGKDPETGEPLDDENIRYQIITFLIAGHETTSGLLSFALYFLVKNPHVLQKAAEEAARVLVDPVPSYKQVKQLKYVGMVLNEALRLWPTAPAFSLYAKEDTVLGGEYPLEKGDELMVLIPQLHRDKTIWGDDVEEFRPERFENPSAIPQHAFKPFGNGQRAMIGQQFALHEATLVLGMMLKHFDFEDHTNYELDIKETLSLKPKGFVVKAKSKKIPLGGIPSPST | 0% | – | –
6 | WT-AxA: WT heme domain + C400A (protein, synthetic cytochrome P450-BM3 variant WT-AxA (heme), WT heme domain + C400A) TIKEMPQPKTFGELKNLPLLNTDKPVQALMKIADELGEIFKFEAPGRVTRYLSSQRLIKEACDESRFDKNLSQALKFVRDFAGDGLFTSWTHEKNWKKAHNILLPSFSQQAMKGYHAMMVDIAVQLVQKWERLNADEHIEVPEDMTRLTLDTIGLCGFNYRFNSFYRDQPHPFITSMVRALDEAMNKLQRANPDDPAYDENKRQFQEDIKVMNDLVDKIIADRKASGEQSDDLLTHMLNGKDPETGEPLDDENIRYQIITFLIAGHETTSGLLSFALYFLVKNPHVLQKAAEEAARVLVDPVPSYKQVKQLKYVGMVLNEALRLWPTAPAFSLYAKEDTVLGGEYPLEKGDELMVLIPQLHRDKTIWGDDVEEFRPERFENPSAIPQHAFKPFGNGQRAAIGQQFALHEATLVLGMMLKHFDFEDHTNYELDIKETLSLKPKGFVVKAKSKKIPLGGIPSPST | trace | 83% | –
7 | BM3-CIS-T438S: BM3-CIS + T438S (protein, listed as Bacillus megaterium, cytochrome P450NADPH-P-450 reductase precursor, cytochrome P450 (BM3), CYP102A1) TIKEMPQPKTFGELKNLPLLNTDKPVQALMKIADELGEIFKFEAPGRVTRYLSSQRLIKEACDESRFDKNLSQALKFARDFAGDGLVTSWTHEKNWKKAHNILLPSFSQQAMKGYHAMMVDIAVQLVQKWERLNADEHIEVSEDMTRLTLDTIGLCGFNYRFNSFYRDQPHPFIISMVRALDEVMNKLQRANPDDPAYDENKRQFQEDIKVMNDLVDKIIADRKARGEQSDDLLTQMLNGKDPETGEPLDDGNIRYQIITFLIAGHEATSGLLSFALYFLVKNPHVLQKVAEEAARVLVDPVPSYKQVKQLKYVGMVLNEALRLWPTAPAFSLYAKEDTVLGGEYPLEKGDEVMVLIPQLHRDKTVWGDDVEEFRPERFENPSAIPQHAFKPFGNGQRACIGQQFALHEATLVLGMMLKHFDFEDHTNYELDIKETLSLKPKGFVVKAKSKKIPLGGIPSPSTEQSAKKVRKKAENAHNTPLLVLYGSNMGTAEGTARDLADIAMSKGFAPQVATLDSHAGNLPREGAVLIVTASYNGHPPDNAKQFVDWLDQASADEVKGVRYSVFGCGDKNWATTYQKVPAFIDETLAAKGAENIADRGEADASDDFEGTYEEWREHMWSDVAAYFNLDIENSEDNKSTLSLQFVDSAADMPLAKMHGAFSTNVVASKELQQPGSARSTRHLEIELPKEASYQEGDHLGVIPRNYEGIVNRVTARFGLDASQQIRLEAEEEKLAHLPLAKTVSVEELLQYVELQDPVTRTQLRAMAAKTVCPPHKVELEALLEKQAYKEQVLAKRLTMLELLEKYPACEMKFSEFIALLPSIRPRYYSISSSPRVDEKQASITVSVVSGEAWSGYGEYKGIASNYLAELQEGDTITCFISTPQSEFTLPKDPETPLIMVGPGTGVAPFRGFVQARKQLKEQGQSLGEAHLYFGCRSPHEDYLYQEELENAQSEGIITLHTAFSRMPNQPKTYVQHVMEQDGKKLIELLDQGAHFYICGDGSQMAPAVEATLMKSYADVHQVSEADARLWLQQLEEKGRYAKDVWAG | – | – | enantioselectivity [3]: 7%; yield of 4.5 [3]: 17%
